From publication doi:10.1101/2020.09.30.318261 (bioRxiv, 2020)

Columns and labels:
Assay in all cases: ELISA
[1] = biological target: SARS-CoV-2 spike S1B domain (receptor binding domain) (SARS-CoV-2 Wuhan-Hu-1, UniProt P0DTC2)
[2] = biological target: SARS-CoV spike S1B domain (receptor binding domain) (SARS-CoV Urbani, UniProt P59594)
[3] = biological target: WIV16 spike receptor binding domain (S1B domain) (SARS-like coronavirus WIV16, strain)

Measured: binding result

B1: human monoclonal antibody 47D11 (antibody, V domains shown)
VH: QVQLQESGPGLVKPSETLSLTCSVSGGSISSHYWSWIRQPPGKGLEWIGYIYYSGSTNHNPSLKSRVTISVDTSKNQFSLKLSSVTAADTAVYYCARGVLLWFGEPIFEIWGQGTMVTVSS
VL: EIVMTQSPATLSVSPGERATLSCRASQSVSSSLAWYQQKPGQAPRLLIYGASTRAPGIPARFSGSGSGTEFTLTISSLQSEDFAVYYCQQYNNWPLTFGGGTKVEI
binds: all assays above
